Test results taken from US20090170141A1 (University of Texas, published 2009).

T1: recombinant wild-type pro-ghrelin-His8 (mouse, UniProt Q9EQX0 24-117)
T1 sequence: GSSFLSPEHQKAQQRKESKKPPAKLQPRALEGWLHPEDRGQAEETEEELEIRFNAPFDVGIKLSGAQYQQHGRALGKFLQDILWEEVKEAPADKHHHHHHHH

T2: recombinant wild-type pro-ghrelin-His8, Q9EQX0
T2 chain: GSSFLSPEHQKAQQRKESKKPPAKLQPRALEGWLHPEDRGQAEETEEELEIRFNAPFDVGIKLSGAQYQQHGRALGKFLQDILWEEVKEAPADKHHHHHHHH


Columns and labels:
[1] = biological target: T1, recombinant wild-type pro-ghrelin-His8; experiment: cell-based or functional assay
[2] = biological target: T2, recombinant wild-type pro-ghrelin-His8, …

acylating activity of GOAT in Sf9 membranes against that in INS-1 cell membranes [1] [fold]	3H-radioactivity covalently linked to pro-ghrelin, in vitro assay with [3H]octanoyl CoA and INS-1 cell membranes, against mock-transfected membranes [1] [fold]	Molecule	amount of [3H]octanoyl pro-ghrelin formed, in vitro assay with Sf9 membranes, against S3A mutant pro-ghrelin as substrate [2]
5		GOAT expressed in Sf9 insect cells from pFastBac HT-A (His10-tag) (from UniProt P0C7A3 1-435) (enzyme)	
	5	mouse ghrelin O-acyltransferase (GOAT) (enzyme) MDWLQLFFLHPLSFYQGAAFPFALLFNYLCILDTFSTRARYLFLLAGGGVLAFAAMGPYSLLIFIPALCAVALVSFLSPQEVHRLTFFFQMGWQTLCHLGLHYTEYYLGEPPPVRFYITLSSLMLLTQRVTSLSLDICEGKVEAPRRGIRSKSSFSEHLWDALPHFSYLLFFPALLGGSLCSFRRFQACVQRSSSLYPSISFRALTWRGLQILGLECLKVALRSAVSAGAGLDDCQRLECIYLMWSTAWLFKLTYYSHWILDDSLLHAAGFGAEAGQGPGEEGYVPDVDIWTLETTHRISLFARQWNRSTALWLRRLVFRKSRRWPLLQTFAFSAWWHGLHPGQVFGFLCWSVMVKADYLIHTFANVCIRSWPLRLLYRALTWAHTQLIIAYIMLAVEGRSLSSLCQLCCSYNSLFPVMYGLLLFLLAERKDKRN	more than 5-fold higher than when the S3A mutant pro-ghrelin was used as the substrate
